Numbering of substitutions follows the chain as printed. Values belong to the molecule of their own block, whether it stands above or below them.
Assays:
[1] = molecular target: monomeric His-tagged human FcRn (hFcRn) (JTA) (human) (UniProt P55899); assay: SPR, IgG amine-coupled, hFcRn (JTA) injected, 1:1 fit, pH 6.0
[2] = molecular target: monomeric His-tagged human FcRn (hFcRn) (JTA) (human) (UniProt P55899); assay: SPR, IgG amine-coupled, hFcRn (JTA) injected, pH 6.0; first value of the cell (kinetic fit)
[3] = molecular target: monomeric His-tagged human FcRn (hFcRn) (JTA) (human) (UniProt P55899); assay: SPR, IgG amine-coupled, hFcRn (JTA) injected, pH 6.0; second value of the cell (steady-state affinity model)
[4] = molecular target: hFcRn in hFcRn TG mice (human FCGRT transgene) (human, UniProt P55899 24-365); assay: cell-based or functional assay
[5] = molecular target: T1, recombinant human FcRn (Sino Biological Inc. Cat. No. CT009-H08H) (human, UniProt P55899 24-297; P61769 21-119); assay: competition ELISA vs biotinylated human serum IgG, pH 6.0
T1 construct: Bought protein; also called hFcRn (SINO); immobilized FcRn

[6] = molecular target: T1, recombinant human FcRn (Sino Biological …); assay: competition ELISA vs biotinylated parent murine antibody, pH 6.0
[7] = molecular target: T1, recombinant human FcRn (Sino Biological …); assay: competition ELISA vs biotinylated parent murine antibody, pH 7.4

hFcRn in hFcRn TG mice (human FCGRT transgene), sequence (P55899 24-365): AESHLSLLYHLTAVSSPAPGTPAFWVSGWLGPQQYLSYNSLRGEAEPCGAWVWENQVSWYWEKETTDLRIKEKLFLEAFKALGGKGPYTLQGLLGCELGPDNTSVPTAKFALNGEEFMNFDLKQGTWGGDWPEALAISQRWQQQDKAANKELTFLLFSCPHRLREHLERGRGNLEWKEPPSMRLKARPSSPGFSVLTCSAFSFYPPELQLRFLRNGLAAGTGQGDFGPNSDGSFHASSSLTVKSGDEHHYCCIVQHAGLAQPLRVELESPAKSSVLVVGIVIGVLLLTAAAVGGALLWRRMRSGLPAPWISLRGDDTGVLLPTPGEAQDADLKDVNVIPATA

Molecule: human IgG1 (hIgG1) (antibody)
koff [1]: 0.0824 s⁻¹
kon [1]: 108000 M⁻¹ s⁻¹
Kd [2]: 0.763 µM
Kd [3]: 1.25 µM

Molecule: human IgG4 (hIgG4) (antibody)
Kd [2]: 1.01 µM
Kd [3]: 0.97 µM

Other lines, results leading:

plasma concentration of HuLys11 (human IgG1) in hFcRn TG mice after 20 mg/kg [4]: 3 fold reduction
B1: H3Vκ2 (H3VH1_Vκ2) IgG4 (antibody, V domains shown)
VH: QVQLVQSGAELKKPGASVKLSCKASGYTFTSYGISWVKQATGQGLEWIGEIYPRSGNTYYNEKFKGRATLTADKSTSTAYMELRSLRSEDSAVYFCARSTTVRPPGIWGTGTTVTVSS
VL: DIQMTQSPSSLSASVGDRVTITCKASDHINNWLAWYQQKPGQAPRLLISGATSLETGVPSRFSGSGTGKDYTLTISSLQPEDFATYYCQQYWSTPYTFGGGTKVEIK

average relative IC50 (normalized to parent murine antibody) [5]: 0.53 ratio
average relative IC50 (normalized to chimeric parent murine antibody) [6]: 0.87 ratio
average relative IC50 (normalized to chimeric parent murine antibody) [7]: 0.89 ratio
B2: VH1_A8/Vκ1 IgG4 (antibody, V domains shown)
VH: B1 VH with R87K, R103S, G106A, I107H
VL: B1 VL with S10Y, P80T
notes: IgG4
